According to patent US20240132563A1:

How the values were obtained:
Experiment in all cases: cell-based or functional assay
[1] = target: IL-18 polypeptide C168 (V11I, C38A, C76A, S105K, C127A) (human) (UniProt Q14116)
[2] = target: IL-18 polypeptide of SEQ ID NO: 47 (C38S, C68S, C76S, C127S) (human) (UniProt Q14116)
[3] = target: IL-18 polypeptide of SEQ ID NO: 60 (E6K, C38Q, K53A) (human) (UniProt Q14116)
[4] = target: IL-18 polypeptide C155 (V11I, C38A, D40A, K53A, C76A, C127A) (human) (UniProt Q14116)
[5] = target: IL-18 polypeptide C152 (V11I, S36A, C38A, K53A, C76A, C127A) (human) (UniProt Q14116)
[6] = target: IL-18 polypeptide C166 (V11I, C38A, S55T, C76A, C127A) (human) (UniProt Q14116)
[7] = target: IL-18 polypeptide of SEQ ID NO: 55 (K53A, T63A, C38S, C68S, C76S, C127S, K70C) (human) (UniProt Q14116)
[8] = target: IL-18 polypeptide of SEQ ID NO: 4 (E6K, C38A, K53A, C68A, M86C) (human) (UniProt Q14116)
[9] = target: IL-18 polypeptide C157 (V11I, C38A, K53A, C76A, C127A, D132A) (human) (UniProt Q14116)
[10] = target: IL-18 polypeptide C151 (V11I, D35A, C38A, K53A, C76A, C127A) (human) (UniProt Q14116)
[11] = target: IL-18 polypeptide of SEQ ID NO: 62 (E6K, C38A, K53A, C127A) (human) (UniProt Q14116)
[12] = target: IL-18 polypeptide of SEQ ID NO: 52 (E06K, T63A) (human) (UniProt Q14116)
[13] = target: IL-18 polypeptide C167 (V11I, C38A, C76A, S105I, C127A) (human) (UniProt Q14116)
[14] = target: IL-18 polypeptide of SEQ ID NO: 48 (C38S, C68S, C76S, C127S, K70C) (human) (UniProt Q14116)
[15] = target: IL-18 polypeptide of SEQ ID NO: 43 (E06K, K53A, S55A, Y01G) (human) (UniProt Q14116)
[16] = target: IL-18 polypeptide C149 (V11I, E31A, C38A, K53A, C76A, C127A) (human) (UniProt Q14116)
[17] = target: IL-18 polypeptide of SEQ ID NO: 9 (E6K, C38A, K53A, C68A, D98C) (human) (UniProt Q14116)
[18] = target: IL-18 polypeptide C150 (V11I, T34A, C38A, K53A, C76A, C127A) (human) (UniProt Q14116)
[19] = target: IL-18 polypeptide of SEQ ID NO: 51 (T63A) (human) (UniProt Q14116)
[20] = target: IL-18 polypeptide of SEQ ID NO: 1 (native sequence) (human) (UniProt Q14116)
[21] = target: IL-18 polypeptide of SEQ ID NO: 54 (E06K, K53A, C38S, C68S, C76S, C127S, K70C) (human) (UniProt Q14116)
[22] = target: IL-18 polypeptide C148 (F2A, V11I, C38A, K53A, C76A, C127A) (human) (UniProt Q14116)
[23] = target: IL-18 polypeptide C160 (V11I, C38A, K53A, C76A, D110A, C127A) (human) (UniProt Q14116)
[24] = target: IL-18 polypeptide C146, SEQ ID NO: 68 (V11I, C38A, M51G, K53A, C76A, C127A) (human) (UniProt Q14116)
[25] = target: IL-18 polypeptide C165 (V11I, C38A, S55R, C76A, C127A) (human) (UniProt Q14116)
[26] = target: IL-18 polypeptide of SEQ ID NO: 57 (E6K, C38S, K53A) (human) (UniProt Q14116)
[27] = target: IL-18 polypeptide C144 (V11I, C38A, K53A, T63A, C76A, C127A) (human) (UniProt Q14116)
IL-18 polypeptide C144 (V11I, C38A, K53A, T63A, C76A, C127A) (human), sequence (Q14116 37-193 V47I/C74A/K89A/T99A/C112A/C163A): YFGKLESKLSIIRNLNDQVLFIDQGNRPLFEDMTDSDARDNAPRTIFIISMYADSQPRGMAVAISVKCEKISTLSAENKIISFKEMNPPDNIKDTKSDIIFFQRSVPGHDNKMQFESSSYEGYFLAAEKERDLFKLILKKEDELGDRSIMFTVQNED

IL-18 polypeptide C149 (V11I, E31A, C38A, K53A, C76A, C127A) (human), sequence (Q14116 37-193 V47I/E67A/C74A/K89A/C112A/C163A): as the sequence (Q14116 37-193 V47I/C74A/K89A/T99A/C112A/C163A) above, with E31A, A63T counted along it
IL-18 polypeptide C168 (V11I, C38A, C76A, S105K, C127A) (human), sequence (Q14116 37-193 V47I/C74A/C112A/S141K/C163A): as the sequence (Q14116 37-193 V47I/C74A/K89A/T99A/C112A/C163A) above, with A53K, A63T, S105K counted along it
IL-18 polypeptide of SEQ ID NO: 43 (E06K, K53A, S55A, Y01G) (human), sequence (Q14116 37-193 Y37G/E42K/K89A/S91A): as the sequence (Q14116 37-193 V47I/C74A/K89A/T99A/C112A/C163A) above, with Y1G, E6K, I11V, A38C, S55A, A63T, A76C, A127C counted along it
IL-18 polypeptide C146, SEQ ID NO: 68 (V11I, C38A, M51G, K53A, C76A, C127A) (human), sequence (Q14116 37-193 V47I/C74A/M87G/K89A/C112A/C163A): as the sequence (Q14116 37-193 V47I/C74A/K89A/T99A/C112A/C163A) above, with M51G, A63T counted along it
IL-18 polypeptide of SEQ ID NO: 47 (C38S, C68S, C76S, C127S) (human), sequence (Q14116 37-193 C74S/C104S/C112S/C163S): as the sequence (Q14116 37-193 V47I/C74A/K89A/T99A/C112A/C163A) above, with I11V, A38S, A53K, A63T, C68S, A76S, A127S counted along it
IL-18 polypeptide C165 (V11I, C38A, S55R, C76A, C127A) (human), sequence (Q14116 37-193 V47I/C74A/S91R/C112A/C163A): as the sequence (Q14116 37-193 V47I/C74A/K89A/T99A/C112A/C163A) above, with A53K, S55R, A63T counted along it
IL-18 polypeptide of SEQ ID NO: 9 (E6K, C38A, K53A, C68A, D98C) (human), sequence (Q14116 other isoform, or with tags, fused parts or gaps C38A K53A C68A D98C C38A K53A C68A D98C): as the sequence (Q14116 37-193 V47I/C74A/K89A/T99A/C112A/C163A) above, with E6K, I11V, A63T, C68A, A76C, D98C, A127C counted along it
IL-18 polypeptide of SEQ ID NO: 57 (E6K, C38S, K53A) (human), sequence (Q14116 other isoform, or with tags, fused parts or gaps C38S K53A C38S K53A): as the sequence (Q14116 37-193 V47I/C74A/K89A/T99A/C112A/C163A) above, with E6K, I11V, A38S, A63T, A76C, A127C counted along it
IL-18 polypeptide C152 (V11I, S36A, C38A, K53A, C76A, C127A) (human), sequence (Q14116 37-193 V47I/S72A/C74A/K89A/C112A/C163A): as the sequence (Q14116 37-193 V47I/C74A/K89A/T99A/C112A/C163A) above, with S36A, A63T counted along it
IL-18 polypeptide C157 (V11I, C38A, K53A, C76A, C127A, D132A) (human), sequence (Q14116 37-193 V47I/C74A/K89A/C112A/C163A/D168A): as the sequence (Q14116 37-193 V47I/C74A/K89A/T99A/C112A/C163A) above, with A63T, D132A counted along it
IL-18 polypeptide of SEQ ID NO: 60 (E6K, C38Q, K53A) (human), sequence (Q14116 other isoform, or with tags, fused parts or gaps C38Q K53A C38Q K53A): as the sequence (Q14116 37-193 V47I/C74A/K89A/T99A/C112A/C163A) above, with E6K, I11V, A38Q, A63T, A76C, A127C counted along it
IL-18 polypeptide of SEQ ID NO: 4 (E6K, C38A, K53A, C68A, M86C) (human), sequence (Q14116 other isoform, or with tags, fused parts or gaps C38A K53A C68A M86C C38A K53A C68A M86C): as the sequence (Q14116 37-193 V47I/C74A/K89A/T99A/C112A/C163A) above, with E6K, I11V, A63T, C68A, A76C, M86C, A127C counted along it
IL-18 polypeptide C167 (V11I, C38A, C76A, S105I, C127A) (human), sequence (Q14116 37-193 V47I/C74A/C112A/S141I/C163A): as the sequence (Q14116 37-193 V47I/C74A/K89A/T99A/C112A/C163A) above, with A53K, A63T, S105I counted along it
IL-18 polypeptide of SEQ ID NO: 52 (E06K, T63A) (human), sequence (Q14116 37-193 E42K/T99A): as the sequence (Q14116 37-193 V47I/C74A/K89A/T99A/C112A/C163A) above, with E6K, I11V, A38C, A53K, A76C, A127C counted along it
IL-18 polypeptide of SEQ ID NO: 55 (K53A, T63A, C38S, C68S, C76S, C127S, K70C) (human), sequence (Q14116 37-193 C74S/K89A/T99A/C104S/K106C/C112S/C163S): as the sequence (Q14116 37-193 V47I/C74A/K89A/T99A/C112A/C163A) above, with I11V, A38S, C68S, K70C, A76S, A127S counted along it
IL-18 polypeptide C151 (V11I, D35A, C38A, K53A, C76A, C127A) (human), sequence (Q14116 37-193 V47I/D71A/C74A/K89A/C112A/C163A): as the sequence (Q14116 37-193 V47I/C74A/K89A/T99A/C112A/C163A) above, with D35A, A63T counted along it
IL-18 polypeptide C155 (V11I, C38A, D40A, K53A, C76A, C127A) (human), sequence (Q14116 37-193 V47I/C74A/D76A/K89A/C112A/C163A): as the sequence (Q14116 37-193 V47I/C74A/K89A/T99A/C112A/C163A) above, with D40A, A63T counted along it
IL-18 polypeptide C160 (V11I, C38A, K53A, C76A, D110A, C127A) (human), sequence (Q14116 37-193 V47I/C74A/K89A/C112A/D146A/C163A): as the sequence (Q14116 37-193 V47I/C74A/K89A/T99A/C112A/C163A) above, with A63T, D110A counted along it
IL-18 polypeptide C148 (F2A, V11I, C38A, K53A, C76A, C127A) (human), sequence (Q14116 other isoform, or with tags, fused parts or gaps V11I C38A K53A C76A C127A V11I C38A K53A C76A C127A): as the sequence (Q14116 37-193 V47I/C74A/K89A/T99A/C112A/C163A) above, with F2A, A63T counted along it
IL-18 polypeptide C166 (V11I, C38A, S55T, C76A, C127A) (human), sequence (Q14116 37-193 V47I/C74A/S91T/C112A/C163A): as the sequence (Q14116 37-193 V47I/C74A/K89A/T99A/C112A/C163A) above, with A53K, S55T, A63T counted along it
IL-18 polypeptide of SEQ ID NO: 62 (E6K, C38A, K53A, C127A) (human), sequence (Q14116 other isoform, or with tags, fused parts or gaps C38A K53A C127A C38A K53A C127A): as the sequence (Q14116 37-193 V47I/C74A/K89A/T99A/C112A/C163A) above, with E6K, I11V, A63T, A76C counted along it
IL-18 polypeptide C150 (V11I, T34A, C38A, K53A, C76A, C127A) (human), sequence (Q14116 37-193 V47I/T70A/C74A/K89A/C112A/C163A): as the sequence (Q14116 37-193 V47I/C74A/K89A/T99A/C112A/C163A) above, with T34A, A63T counted along it
IL-18 polypeptide of SEQ ID NO: 51 (T63A) (human), sequence (Q14116 37-193 T99A): as the sequence (Q14116 37-193 V47I/C74A/K89A/T99A/C112A/C163A) above, with I11V, A38C, A53K, A76C, A127C counted along it
IL-18 polypeptide of SEQ ID NO: 54 (E06K, K53A, C38S, C68S, C76S, C127S, K70C) (human), sequence (Q14116 37-193 E42K/C74S/K89A/C104S/K106C/C112S/C163S): as the sequence (Q14116 37-193 V47I/C74A/K89A/T99A/C112A/C163A) above, with E6K, I11V, A38S, A63T, C68S, K70C, A76S, A127S counted along it
IL-18 polypeptide of SEQ ID NO: 1 (native sequence) (human), sequence (Q14116 37-193): as the sequence (Q14116 37-193 V47I/C74A/K89A/T99A/C112A/C163A) above, with I11V, A38C, A53K, A63T, A76C, A127C counted along it
IL-18 polypeptide of SEQ ID NO: 48 (C38S, C68S, C76S, C127S, K70C) (human), sequence (Q14116 37-193 C74S/C104S/K106C/C112S/C163S): as the sequence (Q14116 37-193 V47I/C74A/K89A/T99A/C112A/C163A) above, with I11V, A38S, A53K, A63T, C68S, K70C, A76S, A127S counted along it

Fc-fused human IL-18 binding protein isoform a (IL-18BPa) (from UniProt O95998 31-194) (Fc fusion)
IC50 of IL-18BPa inhibition of IFNγ induction in NK-92 cells [1]: 5.85 nM
IC50 of IL-18BPa inhibition of IFNγ induction in NK-92 cells [2]: 0.444 nM
IC50 of IL-18BPa inhibition of IFNγ induction in NK-92 cells [3]: 654 nM
IC50 of IL-18BPa inhibition of IFNγ induction in NK-92 cells [4]: 0.681 nM
IC50 of IL-18BPa inhibition of IFNγ induction in NK-92 cells [5]: 2.22 nM
IC50 of IL-18BPa inhibition of IFNγ induction in NK-92 cells [6]: 0.809 nM
IC50 of IL-18BPa inhibition of IFNγ induction in NK-92 cells [7]: > 1000 nM
IC50 of IL-18BPa inhibition of IFNγ induction in NK-92 cells [8]: 396 nM
IC50 of IL-18BPa inhibition of IFNγ induction in NK-92 cells [9]: 3.98 nM
IC50 of IL-18BPa inhibition of IFNγ induction in NK-92 cells [10]: 7.85 nM
IC50 of IL-18BPa inhibition of IFNγ induction in NK-92 cells [11]: 780 nM
IC50 of IL-18BPa inhibition of IFNγ induction in NK-92 cells [12]: 47.1 nM
IC50 of IL-18BPa inhibition of IFNγ induction in NK-92 cells [13]: 0.176 nM
IC50 of IL-18BPa inhibition of IFNγ induction in NK-92 cells [14]: 0.114 nM
IC50 of IL-18BPa inhibition of IFNγ induction in NK-92 cells [15]: 27.8 nM
IC50 of IL-18BPa inhibition of IFNγ induction in NK-92 cells [16]: 21.3 nM
IC50 of IL-18BPa inhibition of IFNγ induction in NK-92 cells [17]: 961 nM
IC50 of IL-18BPa inhibition of IFNγ induction in NK-92 cells [18]: 3.62 nM
IC50 of IL-18BPa inhibition of IFNγ induction in NK-92 cells [19]: 0.239 nM
IC50 of IL-18BPa inhibition of IFNγ induction in NK-92 cells [20]: 1.47 nM
IC50 of IL-18BPa inhibition of IFNγ induction in NK-92 cells [21]: 23.5 nM
IC50 of IL-18BPa inhibition of IFNγ induction in NK-92 cells [22]: 1.17 nM
IC50 of IL-18BPa inhibition of IFNγ induction in NK-92 cells [23]: 1.07 nM
IC50 of IL-18BPa inhibition of IFNγ induction in NK-92 cells [24]: 47.6 nM
IC50 of IL-18BPa inhibition of IFNγ induction in NK-92 cells [25]: 0.44 nM
IC50 of IL-18BPa inhibition of IFNγ induction in NK-92 cells [26]: 1.62 nM
IC50 of IL-18BPa inhibition of IFNγ induction in NK-92 cells [27]: 10.2 nM
